In publication PMC2885749:

Target: TolCΔ2–22 (signal sequence-less mature TolC, His-tagged) (E. coli) (UniProt P02930)
Test: SDS-PAGE of unheated samples

stoichiometry N: 3
Substance: TolCΔ2–22 (signal sequence-less mature TolC, His-tagged) (from UniProt P02930 23-493) (natural protein)
